This passage reports EC50 results from US20090041768A1 (published 2009).

For orientation: EC50 means the concentration at which the effect is half-maximal. A low value points to higher potency in that assay.

The experiment deals with FcRn. In words: Biacore FcRn binding.
Sequence of FcRn (chain, as listed by the source, chain 1 of 2): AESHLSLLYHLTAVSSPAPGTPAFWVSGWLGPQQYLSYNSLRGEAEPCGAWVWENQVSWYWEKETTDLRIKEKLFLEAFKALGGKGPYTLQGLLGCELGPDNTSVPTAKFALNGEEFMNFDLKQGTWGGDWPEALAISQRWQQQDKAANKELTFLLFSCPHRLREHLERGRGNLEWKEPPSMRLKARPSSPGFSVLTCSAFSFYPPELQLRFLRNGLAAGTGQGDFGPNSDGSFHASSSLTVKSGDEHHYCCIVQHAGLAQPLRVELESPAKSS
Sequence of FcRn (chain, as listed by the source, chain 2 of 2): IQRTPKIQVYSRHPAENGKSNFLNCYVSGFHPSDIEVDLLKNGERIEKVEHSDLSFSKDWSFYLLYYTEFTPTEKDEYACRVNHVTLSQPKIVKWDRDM

B1: Fc-loop TN8-19-07 (clone #6951) (Fc fusion)
chain: MDKTHTCPPCPAPELLGGPSVFLFPPKPKDTLMISRTPEVTCVVVDVSHEDPEVKFNWYVDGVEVHNAKTKPREEQYNSTYRVVSVLTVLHQDWLNGKEYKCKVSNKALPAPIEKTISKAKGQPREPQVYTLPPSRDELGGLADHGQCIRWPWMCPPEGWEGGTKNQVSLTCLVKGFYPSDIAVEWESNGQPENNYKTTPPVLDSDGSFFLYSKLTVDKSRWQQGNVFSCSVMHEALHNHYTQKSLSLSPGK
notes: also called Fc-loop-myo7; myostatin loop peptibody
With B1, the half-maximal effective concentration (EC50) was roughly 680 nM.
